The experiment has as its target T1, GST-U1A-His (human (amplified from A549 cells), UniProt P09012 1-282).
T1 construct: also called GST tagged U1A-His
Put plainly: pull-down; GST pulldown: 300 ng purified SRSF5-Flag with 150 ng glutathione-bound GST-tagged protein, 300 µL, 1 h at 4 °C; 50 mM Tris pH 7.5, 200 mM NaCl, 10% glycerol, 0.5% Triton-X-100, RNaseA; blot with anti-Flag or anti-His. The note with it: both partners purified.

T1 sequence (P09012 whole entry): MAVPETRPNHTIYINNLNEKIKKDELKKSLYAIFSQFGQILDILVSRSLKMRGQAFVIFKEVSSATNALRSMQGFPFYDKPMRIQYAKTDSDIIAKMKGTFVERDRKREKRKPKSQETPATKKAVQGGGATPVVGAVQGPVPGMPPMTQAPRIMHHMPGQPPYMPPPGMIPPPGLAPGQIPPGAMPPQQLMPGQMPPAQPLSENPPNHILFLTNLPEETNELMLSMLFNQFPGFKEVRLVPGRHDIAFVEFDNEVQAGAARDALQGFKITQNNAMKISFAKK

B1: purified recombinant SRSF5-Flag (natural protein, human, UniProt Q13243 1-272, looked up)
chain: MSGCRVFIGRLNPAAREKDVERFFKGYGRIRDIDLKRGFGFVEFEDPRDADDAVYELDGKELCSERVTIEHARARSRGGRGRGRYSDRFSSRRPRNDRRNAPPVRTENRLIVENLSSRVSWQDLKDFMRQAGEVTFADAHRPKLNEGVVEFASYGDLKNAIEKLSGKEINGRKIKLIEGSKRHSRSRSRSRSRTRSSSRSRSRSRSRSRKSYSRSRSRSRSRSRSKSRSVSRSPVPEKSQKRGSSSRSKSPASVDRQRSRSRSRSRSVDSGN
notes: also called hSRSF5-Flag; Flag-SRSF5
For B1, the binding result is recorded as “binds”.

These data come from publication PMC9731694, “SRSF5‐Mediated Alternative Splicing of M Gene is Essential for Influenza A Virus Replication: A Host‐Directed Target Against Influenza Virus” (Advanced Science, 2022).
